What was measured:
Settings in all cases: source organism: Vaccinia virus WR
HLA-A*02:01 = test: IEDB peptide-MHC binding, purified MHC/competitive/radioactivity; ≥ and ≤ were set here for values at or beyond the usual limits of such assays
HLA-A*02:06 = test: IEDB peptide-MHC binding, purified MHC/competitive/radioactivity; filed as Kd, often an IC50 or EC50 that approximates it; ≥ and ≤ were set here for values at or beyond the usual limits of such assays
HLA-A*03:01 [1] = test: IEDB peptide-MHC binding, purified MHC/competitive/radioactivity; ≥ and ≤ were set here for values at or beyond the usual limits of such assays
HLA-A*11:01 [2] = test: IEDB peptide-MHC binding, purified MHC/competitive/radioactivity; filed as Kd, often an IC50 or EC50 that approximates it; ≥ and ≤ were set here for values at or beyond the usual limits of such assays
HLA-A*68:01 = test: as above
HLA-A*31:01 = test: as above
HLA-A*33:01 = test: as above
HLA-A*11:01 [3] = test: IEDB peptide-MHC binding, purified MHC/competitive/radioactivity; ≥ and ≤ were set here for values at or beyond the usual limits of such assays
HLA-A*03:01 [4] = test: IEDB peptide-MHC binding, purified MHC/competitive/radioactivity; filed as Kd, often an IC50 or EC50 that approximates it; ≥ and ≤ were set here for values at or beyond the usual limits of such assays

Sequence | IC50 (HLA-A*02:01) | Kd (HLA-A*02:06) | IC50 (HLA-A*03:01 [1]) | Kd (HLA-A*11:01 [2]) | Kd (HLA-A*68:01) | Kd (HLA-A*31:01) | Kd (HLA-A*33:01) | IC50 (HLA-A*11:01 [3]) | Kd (HLA-A*03:01 [4])
FLVIAINAM | 0.435 µM | 0.93 µM | – | – | – | – | – | – | –
AVKDVTITKK | – | – | 0.084 µM | 0.519 µM | 1.62 µM | 0.605 µM | ≥ 50 µM | – | –
ATSLDVINY | – | – | – | – | ≥ 50 µM | 10.3 µM | ≥ 50 µM | 0.0068 µM | 0.625 µM

Source: the Immune Epitope Database (IEDB)
